Experiments:
[1] = target: T1, PF4/heparin complex (human PF4 complexed with heparin) (human, UniProt P02776 32-101); assay: BLI (Octet), biotinylated PF4/heparin on streptavidin sensors, scFv at 1 µg/mL, 1:1 model, mean ± s.d.
T1 construct: Multimeric complex of PF4 with heparin (not a protein); In the EIAs: PF4 captured on biotinylated heparin on streptavidin plates; In the SRA: platelets with 0.2 U/mL heparin; also called PF4 and heparin complexes
T1 sequence: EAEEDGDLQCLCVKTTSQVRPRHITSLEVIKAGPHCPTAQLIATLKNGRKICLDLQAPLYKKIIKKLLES
Experimental: (§1) BLI experiments were performed using wildtype scFv, mutant B, mutant C, mutant D, mutant E, and mutant F at 1 μg/mL. Binding was measured against immobilized biotinylated PF4/heparin complexes on streptavidin biosensors. b) Table showing kinetic data of wildtype and mutant scFv, including binding responses and association and dissociation rates. All data was analyzed based on a 1:1 homogenous ligand binding model using Octet®) User Software version 3.1.
(§2) The Octet-QK Red 96 (FortéBio, Menlo Park, CA) instrumentation was used to conduct all BLI experiments. A 96-well microtiter plate (black, flat-bottom) was used to hold 200 μL per well of either sample or buffer. Pre-coated streptavidin biosensor tips (FortéBio) were hydrated in phosphate buffered saline (PBS) containing 1% bovine serum albumin (BSA, Sigma-Aldrich) before performing all kinetic assays. Each step was performed at an operating temperature of 23° C. with agitation at 1000 rpm. Streptavidin tips were first equilibrated in PBS+1% BSA to establish a baseline. […] The PF4-coated tips were then dipped into PBS+1% BSA for 13 minutes to re-establish a baseline. Tips were then incubated in an analyte solution containing half-fold dilutions of wildtype scFv (4.0, 2.0, 1.0, 0.5, 0.25 μg/mL in PBS+1% BSA) for 10 minutes to measure association. For mutant scFv association, tips were incubated in an analyte solution containing 200 μL of each mutant and wildtype scFv at a final concentration of 1 μg/mL in PBS+1% BSA. Antibody dissociation steps were performed by dipping sensors in wells containing PBS+1% BSA for 56 minutes. The following negative controls included in these kinetic experiments were also measured: 200 μL of buffer to replace both the antigen and scFv and 200 μL buffer replacing scFv only. Each experiment was performed with PF4 or with PF4/heparin as the immobilized antigen.
(§3) BLI experiments were performed to evaluate binding responses and affinities of wildtype and mutant scFv. Biotinylated PF4 alone or complexed with heparin was immobilized on streptavidin biosensors and used to capture wildtype scFv.

[2] = target: T1, PF4/heparin complex (human PF4 …); assay: BLI (Octet), biotinylated PF4/heparin on streptavidin sensors, scFv 1 µg/mL, 1:1 model
Experimental: as §2
(§4) BLI experiments were performed to evaluate binding responses and affinities of wildtype and mutant scFv. Biotinylated PF4 alone or complexed with heparin was immobilized on streptavidin biosensors and used to capture wildtype scFv. Half-fold serial dilutions of wildtype scFv ranging from 0.25 μg/mL to 4 μg/mL were used to determine the optimal concentrations for future experiments PF4 (PF4 FIG. 3; PF4/heparin FIG. 4).

[3] = target: T1, PF4/heparin complex (human PF4 …); assay: cell-based or functional assay
[4] = target: T2, Human PF4 (CXCL4), biotinylated, without heparin (human, UniProt P02776 32-101, biotinylated with EZ-link-Sulfo-NHS-LC-Biotin (sites not given)); assay: BLI (Octet), biotinylated PF4 without heparin on streptavidin sensors, scFv at 1 µg/mL, 1:1 model, mean ± s.d. [cont.) b]
T2 construct: Immobilised on streptavidin biosensors for BLI; also called PF4 alone; platelet factor 4
T2 sequence: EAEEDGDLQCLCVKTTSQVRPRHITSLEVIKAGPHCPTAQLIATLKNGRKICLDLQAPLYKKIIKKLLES
Experimental: as §1, with “PF4” for “PF4/heparin complexes”, “Octet®” for “Octet®)”
as §2, §3

[5] = target: T2, Human PF4 (CXCL4), biotinylated, …; assay: BLI (Octet), biotinylated PF4 without heparin on streptavidin sensors, scFv 1 µg/mL
Experimental: as §2, §4

[6] = target: T1, PF4/heparin complex (human PF4 …); assay: competition EIA, scFv 50 µg/mL; competitor HIT-positive sera antibodies, n=10
Experimental: (§5) Inhibitory PF4/heparin IgG-specific Streptavidin Enzyme Immunoassay (EIA). The binding activity of wildtype and mutant scFv antibodies to PF4/heparin complexes was measured using an inhibitory PF4/heparin IgG-specific EIA with a streptavidin-biotin capture system. Before performing this protocol, 96-well NUNC Maxisorp plates (ThermoFisher) were coated with 10 μg/mL streptavidin for 24 h. Plates were then blocked with 3% bovine serum albumin (BSA) in phosphate buffered saline (PBS) for 2 h at room temperature. Plates were then coated with 1 U/mL biotinylated-heparin for 1 h followed by 30 μg/mL PF4 for 1 h. Increasing concentrations of wildtype or mutant scFv were added and incubated for 1 hr at room temperature. Without removing wildtype or scFv, HIT patient sera in a 1:50 dilution or full-length KKO (2 μg/mL) was then incubated for 1 h at room temperature. After washing, alkaline phosphatase-conjugated anti-human or anti-mouse IgG (Jackson Immuno Research Laboratories, Inc., West Grove, PA) was added at a 1:4000 dilution and incubated for 1 h temperature. For detection, 1 mg/mL p-nitrophenylphosphate (PNPP, Sigma-Aldrich) substrate dissolved in 1 mol/L diethanolamine (DEA) buffer (pH 9.6) was added. The optical density (OD) was measured at 2 min intervals for 30 min at 405 nm (OD₄₀₅ₙₘ) using a BioTek 800 TS plate reader (BioTek Instruments Inc., Winooski, VT) to determine if anti-PF4/heparin antibody binding was inhibited. Results were reported as a decrease in OD (absorbance at 405 nm) from baseline levels.
Inhibiting HIT-Positive (EIA+/SRA+) HIT-Negative (EIA+/SRA−) antibody binding: Sera (n=10) from confirmed HIT-positive patients (EIA-positive/SRA-positive) containing anti-PF4/heparin antibodies were used in a modified streptavidin-biotin based anti-PF4/heparin IgG EIA (streptavidin anti-PF4/hep EIA) with scFv at 50 μg/mL. On average, antibody binding to PF4/heparin was reduced in the presence of scFv.

[7] = target: T1, PF4/heparin complex (human PF4 …); assay: competition EIA, scFv 50 µg/mL; competitor HIT-negative sera antibodies, n=10
Experimental: as §5
Sera (n=10) from confirmed HIT-negative patients (EIA-positive/SRA-negative) containing anti-PF4/heparin antibodies were then used in the same EIA with scFv constructs to determine if antibody binding was decreased in this cohort (Table 5).

[8] = target: T1, PF4/heparin complex (human PF4 …); assay: competition EIA, scFv 50 µg/mL; competitor HIT-positive sera antibodies, n=10; remark: listed apart in the source
[9] = target: T1, PF4/heparin complex (human PF4 …); assay: competition EIA, scFv 50 µg/mL; competitor HIT-negative sera antibodies, n=10; remark: listed apart in the source
[10] = target: T1, PF4/heparin complex (human PF4 …); assay: BLI (Octet), biotinylated PF4/heparin on streptavidin sensors, scFv 1 µg/mL
Experimental: as §2, §4

[11] = target: T2, Human PF4 (CXCL4), biotinylated, …; assay: BLI (Octet), biotinylated PF4 without heparin on streptavidin sensors, scFv 1 µg/mL, 1:1 model
Experimental: as §2, §4

koff [1]: 0.000477 s⁻¹
kon [1]: 85800 M⁻¹ s⁻¹
Kd [2]: 3.81 nM
fold increased affinity against wildtype scFv [2]: 10 fold
% inhibition of 14C-serotonin release (SRA), HIT-Positive Patient #1 serum, scFv 50 µg/mL [3]: 14.4%
% inhibition of 14C-serotonin release (SRA), HIT-Positive Patient #1 serum, scFv 75 µg/mL [3]: 22.2%
% inhibition of 14C-serotonin release (SRA), HIT-Positive Patient #2 serum, scFv 50 µg/mL [3]: 15.4%
% inhibition of 14C-serotonin release (SRA), HIT-Positive Patient #2 serum, scFv 75 µg/mL [3]: 21.8%
% inhibition of 14C-serotonin release (SRA), HIT-Positive Patient #3 serum, scFv 50 µg/mL [3]: -1.2%
% inhibition of 14C-serotonin release (SRA), HIT-Positive Patient #3 serum, scFv 75 µg/mL [3]: 9.6%
% inhibition of 14C-serotonin release (SRA), HIT-Positive Patient #4 serum, scFv 50 µg/mL [3]: 3.3%
% inhibition of 14C-serotonin release (SRA), HIT-Positive Patient #4 serum, scFv 75 µg/mL [3]: 5.6%
% inhibition of 14C-serotonin release (SRA), HIT-Positive Patient #5 serum, scFv 50 µg/mL [3]: 22.2%
% inhibition of 14C-serotonin release (SRA), HIT-Positive Patient #5 serum, scFv 75 µg/mL [3]: 6.9%
koff [4]: 0.000215 s⁻¹
kon [4]: 16900 M⁻¹ s⁻¹
average binding response (wavelength shift) [5]: 0.0399 nm
mean OD405nm of bound serum IgG (+ scFv) [6]: 0.799 OD405nm
mean OD405nm of bound serum IgG (+ scFv) [7]: 1.24 OD405nm
mean % inhibition of serum antibody binding [8]: 50.6%
mean % inhibition of serum antibody binding [9]: -42.5%
average binding response (wavelength shift) [10]: 0.159 nm
fold higher binding response than wildtype scFv [10]: 2 fold
Kd [11]: 1660 nM
B1: Mutant C scFv, scFv(S50N, Y53H) (scFv)
scFv: DIQMIQSQKFMSTSVGDRVTVTCKASQNVGTNVAWYQQKPGQSPNALIYNASHRYSGVPDRFTGSGSGTDFTLTITNVQSEDLADYFCQQYNSYPLTFGTGTKLDLKGGGGSGGGGSGGGGSVQLQQSGAELVKPGASVKLSCKASGYTFTNYFIYWVKQRPGQGLEWIGEINPRNGDTDFNEKFESRATLTVDKSSSTAYMQLSSLTSEDSAIYYCTRSPYGNNYGFTYWGQGTLVTVSA
notes: VL-linker-VH; histidine-tagged, from E. coli BL21; also called Mut C; not shown: histidine tag from the pADL-22c vector

Reference: patent US20250011413A1 (MCMASTER UNIVERSITY, published 2025)
